Experimental data as given in article PMC5134256 (Nature, 2016).

Target: the molecule itself
Experiment: crystal structure

B1: Cse2 subunit of E. coli Cascade, His6 tag cleaved (natural protein, E. coli K12, UniProt P76632 1-160, looked up)
chain: MADEIDAMALYRAWQQLDNGSCAQIRRVSEPDELRDIPAFYRLVQPFGWENPRHQQALLRMVFCLSAGKNVIRHQDKKSEQTTGISLGRALANSGRINERRIFQLIRADRTADMVQLRRLLTHAEPVLDWPLMARMLTWWGKRERQQLLEDFVLTTNKNA
  stoichiometry N: 2
